From patent US20220119534A1 (DRAGONFLY THERAPEUTICS, published 2022)
Values joined by “and” are separate entries in the source; they are usually repeats but may differ in a detail not shown here. Identical values can stand only once. Like-named read-outs stand apart in the source and are kept apart here.

Columns and labels:
[1] = target: T1, Cynomolgus FcRn (cynomolgus monkey, UniProt Q8SPV9 24-297; Q8SPW0 21-119); experiment: SPR 25C, pH 6.0, FcRn on chip, steady state fit (n = 3)
T1 construct: Bought recombinant receptor; also called cFcRn; cyno FcRn
T1 sequence (Q8SPV9 24-297 limits assumed, chain 1 of 2): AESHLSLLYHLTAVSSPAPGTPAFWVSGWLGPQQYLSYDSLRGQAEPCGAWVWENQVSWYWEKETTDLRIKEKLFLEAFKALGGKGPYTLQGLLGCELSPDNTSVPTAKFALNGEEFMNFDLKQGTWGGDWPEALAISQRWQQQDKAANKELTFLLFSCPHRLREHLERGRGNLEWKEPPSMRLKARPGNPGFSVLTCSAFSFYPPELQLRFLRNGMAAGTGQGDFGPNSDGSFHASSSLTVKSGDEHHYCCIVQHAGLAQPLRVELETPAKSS
T1 sequence (Q8SPW0 21-119 limits assumed, chain 2 of 2): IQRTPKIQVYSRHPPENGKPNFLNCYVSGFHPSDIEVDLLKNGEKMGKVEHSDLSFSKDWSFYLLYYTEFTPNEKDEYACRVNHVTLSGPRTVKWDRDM

[2] = target: T2, Human CLEC12A-His (recombinant, K244 WT) (human, UniProt Q5QGZ9 65-265); experiment: SPR, two-state fit; fully purified protein after low pH hold
T2 construct: Made in house (Dragonfly Tx); also called hCLEC12A; hCLEC12A-His; not shown: His tag
T2 sequence: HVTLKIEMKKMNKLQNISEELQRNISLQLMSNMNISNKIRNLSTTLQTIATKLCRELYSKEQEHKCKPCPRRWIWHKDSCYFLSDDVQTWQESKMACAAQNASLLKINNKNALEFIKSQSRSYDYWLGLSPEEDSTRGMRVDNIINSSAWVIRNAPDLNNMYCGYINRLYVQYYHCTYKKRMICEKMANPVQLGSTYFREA

[3] = target: T2, Human CLEC12A-His (recombinant, K244 WT); experiment: SPR 37C, AB0089 captured on anti-hFc, two-state fit
[4] = target: T2, Human CLEC12A-His (recombinant, K244 WT); experiment: SPR, two-state fit (ka1); control (fully purified protein study)
[5] = target: T3, De-sialylated human CLEC12A (human, UniProt Q5QGZ9 65-265, treated with neuraminidase (terminal sialic acids removed)); experiment: SPR, two-state fit (ka1)
T3 construct: Same recombinant antigen as m2 after neuraminidase; also called De-sialylated CLEC12A
T3 sequence: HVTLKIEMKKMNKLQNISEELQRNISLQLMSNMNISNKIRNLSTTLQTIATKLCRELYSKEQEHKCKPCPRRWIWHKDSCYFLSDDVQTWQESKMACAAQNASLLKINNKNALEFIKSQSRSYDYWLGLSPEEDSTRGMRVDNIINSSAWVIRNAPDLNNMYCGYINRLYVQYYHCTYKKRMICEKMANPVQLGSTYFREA

[6] = target: T4, De-glycosylated human CLEC12A (human, UniProt Q5QGZ9 65-265, treated with PNGaseF (N-linked glycans removed)); experiment: SPR, two-state fit (ka1)
T4 construct: Same recombinant antigen as m2 after PNGaseF; also called De-glycosylated CLEC12A
T4 sequence: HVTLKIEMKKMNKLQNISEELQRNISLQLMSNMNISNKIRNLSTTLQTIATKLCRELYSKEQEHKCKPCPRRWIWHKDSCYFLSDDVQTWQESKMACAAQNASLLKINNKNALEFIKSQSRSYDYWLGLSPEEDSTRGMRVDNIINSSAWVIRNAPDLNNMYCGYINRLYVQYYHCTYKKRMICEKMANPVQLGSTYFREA

[7] = target: T5, Human CD16a V158 (FcγRIIIa V158) (human, UniProt P08637 17-208, biotinylated); experiment: SPR; control sample
T5 construct: Bought recombinant receptor; also called hCD16aV; hFcγRIIIa V158
T5 sequence (P08637 17-208 F176V limits assumed): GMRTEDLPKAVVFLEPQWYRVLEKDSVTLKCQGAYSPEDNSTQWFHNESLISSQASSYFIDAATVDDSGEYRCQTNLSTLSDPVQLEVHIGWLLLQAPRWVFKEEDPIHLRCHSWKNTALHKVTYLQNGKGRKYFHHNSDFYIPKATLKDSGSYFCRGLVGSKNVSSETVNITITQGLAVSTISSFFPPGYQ

[8] = target: T6, mFc-hNKG2D (recombinant mFc-tagged human NKG2D dimer) (human, UniProt P26718 73-216); experiment: SPR; control sample
T6 construct: extracellular domain; Made in house; not shown: mouse Fc tag
T6 sequence (looked up): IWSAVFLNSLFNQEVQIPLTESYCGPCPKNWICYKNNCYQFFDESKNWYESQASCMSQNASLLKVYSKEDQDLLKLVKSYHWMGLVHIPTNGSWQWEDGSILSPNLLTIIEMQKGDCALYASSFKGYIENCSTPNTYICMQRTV

[9] = target: T5, Human CD16a V158 (FcγRIIIa V158); experiment: SPR; control sample; remark: listed apart in the source

Kd [1]: 1000 nM | Kd [2]: 0.53 nM | Kd [3]: 0.69 nM and 0.75 nM and 0.78 nM | kon [4]: 1.03e+07 M⁻¹ s⁻¹ | kon [5]: 2.09e+07 M⁻¹ s⁻¹ | kon [6]: 8.96e+06 M⁻¹ s⁻¹ | Kd [7]: 323 nM | koff [7]: 0.0276 s⁻¹ | kon [7]: 85300 M⁻¹ s⁻¹ | Kd [8]: 772 nM | koff [8]: 0.135 s⁻¹ | kon [8]: 175000 M⁻¹ s⁻¹ | Kd [9]: 323 nM | koff [9]: 0.0276 s⁻¹ | kon [9]: 85300 M⁻¹ s⁻¹
B1: AB0089 TriNKET (bispecific antibody, human IgG1, kappa)
chain: QLQLQESGPGLVKPSETLSLTCTVSGFSLTNYGLHWIRQPPGKCLEWIGVIWVGGATDYNPSLKSRVTISVDTSKNQFSLKLSSVQAADTAVYYCAKGDYGDTLDYWGQGTLVTVSSGGGGSGGGGSGGGGSGGGGSDIQMTQSPSSLSASVGDRVTITCHASQNINFWLSWYQQKPGKAPKLLIYEASNLHTGVPSRFSGSGSGTDFTLTISSLQPEDFATYYCQQSHSYPLTFGCGTKLEIKGSDKTHTCPPCPAPELLGGPSVFLFPPKPKDTLMISRTPEVTCVVVDVSHEDPEVKFNWYVDGVEVHNAKTKPREEQYNSTYRVVSVLTVLHQDWLNGKEYKCKVSNKALPAPIEKTISKAKGQPREPRVYTLPPCRDELTKNQVSLTCLVKGFYPSDIAVEWESNGQPENNYKTTPPVLVSDGSFTLYSKLTVDKSRWQQGNVFSCSVMHEALHNHYTQKSLSLSPG
heavy: EVQLVESGGGLVKPGGSLRLSCAASGFTFSSYSMNWVRQAPGKGLEWVSSISSSSSYIYYADSVKGRFTISRDNAKNSLYLQMNSLRAEDTAVYYCARGAPIGAAAGWFDPWGQGTLVTVSSASTKGPSVFPLAPSSKSTSGGTAALGCLVKDYFPEPVTVSWNSGALTSGVHTFPAVLQSSGLYSLSSVVTVPSSSLGTQTYICNVNHKPSNTKVDKKVEPKSCDKTHTCPPCPAPELLGGPSVFLFPPKPKDTLMISRTPEVTCVVVDVSHEDPEVKFNWYVDGVEVHNAKTKPREEQYNSTYRVVSVLTVLHQDWLNGKEYKCKVSNKALPAPIEKTISKAKGQPREPQVCTLPPSRDELTENQVSLTCLVKGFYPSDIAVEWESNGQPENNYKTTPPVLDSDGSFFLYSWLTVDKSRWQQGNVFSCSVMHEALHNHYTQKSLSLSPG
light: DIQMTQSPSSVSASVGDRVTITCRASQGISSWLAWYQQKPGKAPKLLIYAASSLQSGVPSRFSGSGSGTDFTLTISSLQPEDFATYYCQQGVSFPRTFGGGTKVEIKRTVAAPSVFIFPPSDEQLKSGTASVVCLLNNFYPREAKVQWKVDNALQSGNSQESVTEQDSKDSTYSLSSTLTLSKADYEKHKVYACEVTHQGLSSPVTKSFNRGEC
notes: F3' format heterodimer of three chains; human IgG1 Fc with EW-RVT and Y349C/S354C mutations; also called AB0089 Lot AB0089-002; CLEC12A TriNKET AB0089
